The record followed here is patent US20180265551A1 (GlaxoSmithKline, published 2018).

This series concerns the molecule itself. Nature of the series: size exclusion chromatography and negative stain EM (self-association of trimers).

B1: gB-698 (CMV gB ectodomain residues 1-698 with fusion loop, furin site and C246S mutations, C-terminal 6-His tag) (other)
chain: VSSSSTRGTSATHSHHSSHTTSAAHSRSGSVSQRVTSSQTVSHGVNETIYNTTLKYGDVVGVNTTKYPYRVCSMAQGTDLIRFERNIVCTSMKPINEDLDEGIMVVYKRNIVAHTFKVRVYQKVLTFRRSYAYHRTTYLLGSNTEYVAPPMWEIHHINSHSQCYSSYSRVIAGTVFVAYHRDSYENKTMQLMPDDYSNTHSTRYVTVKDQWHSRGSTRLYRETSNLNCMVTITTARSKYPYHFFATSTGDVVDISPFYNGTNRNASYFGENADKFFIFPNYTIVSDFGRPNSALETHRLVAFLERADSVISWDIQDEKNVTCQLTFWEASERTIRSEAEDSYHFSSAKMTATFLSKKQEVNMSDSALDCVRDEAINKLQQIFNTSYNQTYEKYGNVSVFETTGGLVVFWQGIKQKSLVELERLANRSSLNLTHNSTKSSTDGNNATHLSNMESVHNLVYAQLQFTYDTLRGYINRALAQIAEAWCVDQRRTLEVFKELSKINPSAILSAIYNKPIAARFMGDVLGLASCVTINQTSVKVLRDMNVKESPGRCYSRPVVIFNFANSSYVQYGQLGEDNEILLGNHRTEECQLPSLKIFIAGNSAYEYVDYLFKRMIDLSSISTVDSMIALDIDPLENTDFRVLELYSQKELRSSNVFDLEEIMREFNSYKQRVKYVEHHHHHH
notes: Expressed in 293GnTI- cells; The trimer pairs into a dimeric trimer of six subunits
In the case of B1, the binding result was “binds”.
